We go through three substances from publication PMC6173736.

Common to all, as to experiment: SEC; HPLC-SEC on a bioZen 1.8 µm SEC-3 column in 150 mM KPi, pH 6.8; absorbance at 280 nm and 655 nm; samples after clicking with BCN-649, in vitro phosphopantetheinylation and purification over Ni-NTA magnetic beads
In experiment [1] the target is full-length mFAS mutant Gly2113AzPhe (mouse) (UniProt P19096).
The target of experiment [2] is full-length mFAS mutant Gly2113AzPhe with additional ACP knock-out mutation Ser2150Ala (mouse) (UniProt P19096).
The target in experiment [3] is murine fatty acid synthase type I, wild type, full-length (mouse) (UniProt P19096). Conditions: remark: other sources report otherwise.

Chain of full-length mFAS mutant Gly2113AzPhe with additional ACP knock-out mutation Ser2150Ala (P19096 1-2112, change not shown): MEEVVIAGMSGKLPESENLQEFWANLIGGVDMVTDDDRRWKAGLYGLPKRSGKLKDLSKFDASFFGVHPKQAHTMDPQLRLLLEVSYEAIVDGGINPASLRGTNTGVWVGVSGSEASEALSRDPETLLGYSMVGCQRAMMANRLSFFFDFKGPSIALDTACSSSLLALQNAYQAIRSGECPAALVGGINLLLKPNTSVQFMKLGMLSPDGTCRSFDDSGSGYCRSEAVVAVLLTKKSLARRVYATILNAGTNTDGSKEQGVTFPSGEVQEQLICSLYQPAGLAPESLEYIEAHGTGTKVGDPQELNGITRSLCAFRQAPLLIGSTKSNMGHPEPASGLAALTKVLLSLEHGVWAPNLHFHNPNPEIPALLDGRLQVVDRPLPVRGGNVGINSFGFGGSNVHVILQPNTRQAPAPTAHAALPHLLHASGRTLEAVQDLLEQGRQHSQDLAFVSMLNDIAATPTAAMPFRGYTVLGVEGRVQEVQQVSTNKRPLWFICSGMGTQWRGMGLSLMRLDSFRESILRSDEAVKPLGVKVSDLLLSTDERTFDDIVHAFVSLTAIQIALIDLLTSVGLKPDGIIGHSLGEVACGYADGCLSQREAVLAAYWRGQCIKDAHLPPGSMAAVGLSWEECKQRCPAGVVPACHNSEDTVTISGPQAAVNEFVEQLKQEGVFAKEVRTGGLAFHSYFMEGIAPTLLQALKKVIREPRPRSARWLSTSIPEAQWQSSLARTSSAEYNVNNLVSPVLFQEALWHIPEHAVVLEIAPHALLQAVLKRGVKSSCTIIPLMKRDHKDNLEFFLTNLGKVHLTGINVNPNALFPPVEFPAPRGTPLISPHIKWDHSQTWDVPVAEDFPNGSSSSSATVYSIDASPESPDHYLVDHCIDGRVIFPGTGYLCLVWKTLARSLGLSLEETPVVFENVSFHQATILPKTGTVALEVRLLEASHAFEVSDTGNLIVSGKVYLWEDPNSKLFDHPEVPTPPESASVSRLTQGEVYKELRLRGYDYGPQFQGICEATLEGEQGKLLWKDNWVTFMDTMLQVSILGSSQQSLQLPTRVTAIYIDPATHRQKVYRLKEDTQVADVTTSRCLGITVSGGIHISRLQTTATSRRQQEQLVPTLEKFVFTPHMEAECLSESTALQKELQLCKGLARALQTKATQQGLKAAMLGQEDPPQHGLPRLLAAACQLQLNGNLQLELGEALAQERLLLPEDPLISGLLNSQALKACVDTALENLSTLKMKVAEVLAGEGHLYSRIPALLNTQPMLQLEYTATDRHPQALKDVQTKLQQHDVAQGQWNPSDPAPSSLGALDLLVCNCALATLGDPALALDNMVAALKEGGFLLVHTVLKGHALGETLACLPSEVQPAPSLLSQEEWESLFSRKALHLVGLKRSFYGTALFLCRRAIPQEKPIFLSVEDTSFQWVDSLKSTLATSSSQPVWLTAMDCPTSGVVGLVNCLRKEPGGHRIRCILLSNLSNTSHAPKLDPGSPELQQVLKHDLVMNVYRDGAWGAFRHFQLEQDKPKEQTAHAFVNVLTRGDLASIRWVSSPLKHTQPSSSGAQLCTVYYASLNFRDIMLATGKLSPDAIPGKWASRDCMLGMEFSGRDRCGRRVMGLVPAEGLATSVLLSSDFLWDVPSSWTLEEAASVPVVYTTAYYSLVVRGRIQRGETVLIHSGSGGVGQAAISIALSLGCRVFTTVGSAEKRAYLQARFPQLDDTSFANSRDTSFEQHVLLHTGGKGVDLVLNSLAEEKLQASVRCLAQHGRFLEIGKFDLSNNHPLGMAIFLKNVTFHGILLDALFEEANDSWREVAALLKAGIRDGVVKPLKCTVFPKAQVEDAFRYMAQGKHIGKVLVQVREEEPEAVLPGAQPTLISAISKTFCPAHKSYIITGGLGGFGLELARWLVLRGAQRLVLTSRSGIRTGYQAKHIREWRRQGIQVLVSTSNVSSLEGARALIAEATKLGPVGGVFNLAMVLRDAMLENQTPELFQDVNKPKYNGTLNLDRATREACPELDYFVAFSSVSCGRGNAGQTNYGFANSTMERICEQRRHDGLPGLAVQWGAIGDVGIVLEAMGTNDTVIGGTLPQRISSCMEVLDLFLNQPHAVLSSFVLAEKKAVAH

Turning to “full-length mFAS mutant Gly2113AzPhe (from UniProt P19096 1-2504) (enzyme)”, the stoichiometry N in experiment [1] stood at 2.

In the case of “full-length mFAS mutant Gly2113AzPhe with additional ACP knock-out mutation Ser2150Ala (from UniProt P19096 1-2504) (enzyme)”, the stoichiometry N in experiment [2] worked out at 2.

In experiment [3], “murine fatty acid synthase type I, wild type, full-length, P19096 1-2504” displayed a stoichiometry N of 2.

As a reminder, the stoichiometry N is a count of units in the complex or per binding partner.
